The text below walks through data of paper PMC6255812.

Some results are limits rather than exact numbers.

In assay [1] the target is full-length ACA8 (plasma-membrane Ca2+-ATPase ACA8) (UniProt Q9LF79).
For assay [2] the target is unchanged. The assay can be described thus: native MS; DDM-solubilised ACA8, apo and with CaM; 200 mM ammonium acetate pH 8.3, 0.018% DDM; nanoESI, spectra at 200 V collision energy.
Assay [3] deals with fluorescein-labeled regulatory domain of ACA8 (ACA8RD, residues 1-130) (UniProt Q9LF79). Description: fluorescence polarisation; fluorescence anisotropy, displacement; CaM added to a preformed complex of ACA8core (POPC nanodiscs) and labelled ACA8RD; decrease in anisotropy.
Sequence of fluorescein-labeled regulatory domain of ACA8 (ACA8RD, residues 1-130) (Q9LF79 other isoform, or with tags, fused parts or gaps): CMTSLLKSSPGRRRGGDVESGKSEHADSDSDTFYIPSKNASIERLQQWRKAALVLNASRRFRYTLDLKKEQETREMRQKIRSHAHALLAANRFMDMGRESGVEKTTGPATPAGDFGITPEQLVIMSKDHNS

Sequence of full-length ACA8 (plasma-membrane Ca2+-ATPase ACA8) (Q9LF79 whole entry): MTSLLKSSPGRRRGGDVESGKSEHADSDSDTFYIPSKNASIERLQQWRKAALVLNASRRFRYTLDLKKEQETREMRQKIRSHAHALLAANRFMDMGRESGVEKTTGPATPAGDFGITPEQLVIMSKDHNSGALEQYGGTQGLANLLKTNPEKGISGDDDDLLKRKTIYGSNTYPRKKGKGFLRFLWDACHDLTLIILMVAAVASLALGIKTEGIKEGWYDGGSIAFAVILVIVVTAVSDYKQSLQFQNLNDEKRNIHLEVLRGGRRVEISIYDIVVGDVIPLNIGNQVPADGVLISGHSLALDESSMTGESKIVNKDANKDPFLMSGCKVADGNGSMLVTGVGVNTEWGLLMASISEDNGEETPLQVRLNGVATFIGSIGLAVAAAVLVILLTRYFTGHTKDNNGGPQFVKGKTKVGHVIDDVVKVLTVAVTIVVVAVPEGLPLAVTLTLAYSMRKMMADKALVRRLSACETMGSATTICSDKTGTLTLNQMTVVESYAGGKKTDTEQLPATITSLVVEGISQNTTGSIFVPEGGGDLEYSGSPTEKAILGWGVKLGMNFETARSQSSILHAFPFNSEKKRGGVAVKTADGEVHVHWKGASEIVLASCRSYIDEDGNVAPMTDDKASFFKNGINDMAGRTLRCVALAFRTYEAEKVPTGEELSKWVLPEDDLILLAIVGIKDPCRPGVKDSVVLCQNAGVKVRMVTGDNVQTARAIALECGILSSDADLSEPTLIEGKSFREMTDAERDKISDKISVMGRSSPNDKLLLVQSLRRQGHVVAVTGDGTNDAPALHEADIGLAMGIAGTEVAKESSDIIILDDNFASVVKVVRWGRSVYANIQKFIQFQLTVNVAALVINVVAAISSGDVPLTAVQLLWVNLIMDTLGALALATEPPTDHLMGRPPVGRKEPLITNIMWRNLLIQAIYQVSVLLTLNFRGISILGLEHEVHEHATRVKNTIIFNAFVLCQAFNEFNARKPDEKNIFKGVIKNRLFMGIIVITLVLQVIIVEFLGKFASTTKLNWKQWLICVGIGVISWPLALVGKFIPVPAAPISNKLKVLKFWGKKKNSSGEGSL

“calmodulin CaM7 from A. thaliana (from UniProt P59220 1-149) (natural protein)” returned an ATPase activity (Baginski assay) of detergent solubilized ACA8 with CaM against basal activity without CaM in assay [1] of 2 fold. The stoichiometry N in assay [2] is < 2. This substance also displayed a K0.5 in assay [3] of 120 nM.
